Data from the NTF2 design screens of Basanta et al. (2020).

Test: protease stability score; higher = more stable; yeast display proteolysis, trypsin and chymotrypsin;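 further: log10 excess protease needed over predicted unfolded state with 0 meaning unfolded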

Sequence	protease stability score
DEDEATKVATNMQEILETGNPDEAAKLADKDVRVVVGDKDVHGSENLKDMMRELRERADHLRVVDMHSHGEKFVLLVIIEHNGRRHQVNIVMTIDNGRIKSLSITSG	1.87
DEDEDDKMRKLIKTNNPQEIAQNADPNVEATVGNKTYHGREQMQQIAEIFRTMADHVHVDRVDADNGHVSAHRVITVNGHKVNVKVRFNISNGRIKRQEIDVTSEQDHRELEKNYN	0.162
DEDEDIRSWMKQFEEVVKTGDSKHAADMFDKNAKMQYGDKTYHGRDDVKSVLDHLLRRADHVRLELLDVKSNGESVHAVMLITFVVDGQTDSYHVELVFVVDNGRRNLHTATTK	0.872
DEDEDKRIQEVLEQNDFETLSKQADENAKVQYGDTEVHGRRKAYEYLRRLKRSIDHIHYHSIHVHNGRAKMTAEAHFNGRKAVFIVVLQFENGRIRMVVFRATDSRIKKIIKEALN	0.988
DEDEEETLAQTWIKLMETGDPEQNMENVDPNVKVTYGDKTLHGREQFSDWEKKLHERVDRIEIKKMDVHNGSIRIVVVNDVNGKTKRFVVHLIYENGRLKSAKETDQ	0.413
DEDEEKRIRKYIKQQETGDPDKLNKYFDKDVHLHVGDKEVKGDEQANRELEHKFRKLRYSFEVKKLEVSNGKVEVKYHATVESNGKPHTYEVSADATLHNGRLQSQVNNERG	-0.021
DEDEERDFEEMWKVFHKGNPDDYKKMIDKDVEIRIGDKTVHGREEIVRQVHHEMNNINFQLQSVDIRVTNGRVEIDVRYVSNVNGRPDTIRYTYHASASNGKLKTAEYRISEDQQNRHRR	-0.273
DEDEERKAVERFLDALKTGDPDKFKKLVDPNVNIQVGDKEINGREQYAHEVHRRKKRADHLEVEHVNVKNGKVQIFVVINVDGRSHHYVLDAHIHNGRIVEMKVEHQ	0.08
DEDEERKVVHSIMHALEKGDEQKAVDLMDPNVKVIIGDKEISGRERVRDVAQELRKRIDHLRVKTLDVKNGQARAVAEVEHNGQERRIEFNMQLDNGRVKDMRIQER	1.09
DEDEERQFAKDLMRAMEKNDPKLLVKLADKDVSINYGEKQVHGKRQAEQLMRDLHKRVDDIKVRHVSMHNGSLTINLVLNVNGHNENLVAIVRVENGRIKSLTFEHR	0.861
DEDEKMKRAMKKLNEVQNTGNEKTLANLMDPNARMDIGDKRYHGREQVTTAVKDIQRRVDHVEWRLTDLKQDGDKLDAKADVIFRTNGTQTNRHADMKLRDVNGQLVIVEYVIS	-0.093
DEDEKRELARRFAKNFLHGDHDNIRDLADKDVDAQVGDQTFTGTEQLMRVVKEVRDRVDHFNLTSVDVHNGQADIHARAKVNGRDYRVKIRIKIHNGRILHVQFNRR	1.18
DEDEKRKAEHLVRDGSFEELKDLMDENAKVRYGDKEFKGREQAQDAMRQMSRAVDSITVKSLDMQGDTVTARAQLTYNGQHYDVVIQMVVNNGRIKQFVVVVRDPKQKRTLENLRQ	0.567
DEDEKTKLAEQAKDILQEGNFHEMMHLADENAKVVYGDRRYDGREKVHKVLRDFDDRVDKIDVKRVRVENGRAKIVADVEHDGQRTTVIIHIQAHNGKIRRIRFHTP	0.586
DEDEKVRQLVRDLIEALRTNDQKRWVELADKDARLKVGDKSYHGREELAKQMKKLREHVDHVTMRVKRVEVHNGRISVDATLTYDINGKKNHQTVKMQFRRHNGQIRLVQIEME	0.174
DEDELAQKLVEQMVKAIRHGDPHDFVKMIDKNATMDVGDKRLHGREKLEEFIKKLVDKYDHLDAKVSHMDLDNGQIKVNIEIHLVKNGKTDHITLDARADVTNGDARFVDFQWR	1.47
DEDELQRFAEQVNRVVRQGDPKQAERLFDENARVQIGDKTYHGREDISKMIENQRRRVDHIKVRRIDVQGNELVIHLVYNVNGQEHRNVLVFELHNGKIESAHRTDG	0.959
DEDEMKNVLELIRVMSKGDEDRIRERADPNVKVNIGDKRLQGREELARQASTEKKKMDIHIRVDSVHVHDGNVLIVYKRENHYNGEPNRDEQRFQAQASNGNLKNMSWRFDEDKKRKIET	-0.038

Sequence	protease stability score
DEDENNKILESINTNDSKHNKDLLDKDVTIRYGDKQVQGREEALEFLDTWNKRVDHFRVHHMTVKGDKLRMRFEIVFNGVTVEVSLSAKVENGRMKHFHLDARDEKVRHRLKRMFG	0.108
DEDEQKVAKTFVEAVRQGDEKQIDDLADPNVRLRVGDKTLHGRDQLREHVRQMKEELKVEWSVQHVDFSDGRARIHAEMRVDVNGKPVTDDVTFFIEVKNGKVKNVEIHMDESVKREAEQ	0.548
DEDEQRKIDETMHRLMEENNFDQLARTADENVRIVIGDKTYRGREQAVSAFRKLREHVDHADVKSVEIRNGRVLIKARLSFNGRTADVVFTFQFTNGRIQWAEVDPHAVRNARE	1.06
DEDEQRTLVEQLARAIQQGDEDQVRKLADPNAKARYGDHEIHGHDQLAHVVRQLKDQVDSIEVESFSVRNGRAELDIRFDVNGRDVKITINAEIRNGRMKHVEFQYTNEDQEKTANR	0.948
DEDERAEKMARTAQEILETGDEEKAKRLFPPNARAKVGDRTYHGREDIVKHLKELWDRADHVRVEIKSFRVRGDNVHVVMTLVFTYNGKNETQQLTMIFVHVNGRQVAQDMKIG	0.671
DEDERQDLARKYNKALKQGDSKKFEELVDKHVKVEVGETRFHGREQASKNFRELVDNFDEFEVKSLEVHGESVTVEAVARINGRTANIRFQRTIHNGKNQVVKLNPDDMRRNLK	-0.134
DEDETAKRVNDKAREAAETNNPKQFEELADPNVRMVIGDKEWRGRRQLSHWYKEMADRADHMQVDYQDVHVSGDKVTLHVQINLESNGHSEIKTLIVVMVVHNGRLRAQSQWEQ	0.534
DEDEVEKIATTIKDVIQEGNFRQLEKLADPNAKVVIGDKTYRGRDAMRHAAQLLQQRADHITVQTVHVHGNKVEAHLRATVNGRDVHFVVKVTLENGRIKNMKIEYTDEDKFKEMVG	1.31
DEDEVKEVLKRIKSNDWHTLAKQADENARAVVGDKTYHGRTQMKKWMDKVRKRVDHIEISKVKQEGDKAVVDLVFQVNGVKVHLVIYIHVHNGKVVDVQAKARNEEELHKLKKAVS	0.331
DEDEVRKAKKYIENWEQGNPKDLQEQADENASAQYGDKRIHGMTKIAKFVHKEHEESRVEIQDVQIEAHNGTVHIEIRAIFDHNGKPSQKKVFMSMTMHNGKVKDAELHSDK	0.155
DEDEVRKIAEDVLRIIETGNPDDAMEQADENAEVIVGDKTYSGRTELRKVIHHMREKVDHMQVKSYDAHGNKATAVFILDNNGRKDEHVVYFDFHNGRLKKVNIQKK	0.243
DEDEWRKIWTVFENNDPRKFKTMVDKHAHAEVGDTEFHGREQIQHYFERLIRRVDHIEYKSVNIHGDKMRAEVVLNVDGQNLRYVYEVTVHNGRIKMMRIRFTDEEVERQMKRIVK	0.209
DEDEYAHQVAQELRKAMETGDSDRIARLFDENAELRVGDKVWHGRDQIRKYWHEWLRRADTVDVKIDEVDVEGDKARAHIRVRAEDNGRHQEFTVKMTLKNKNGRAKITSMHVS	1.57
DEDFDTQLEEMLKNILNGNTEEIDKYADPNVKLEVGDHEYHGREHVKENWKEELDHMDVEVKSVHISARDGRAHVNLEFVVNIDGRPRHVKVREEFVWKNGKLKRANRHFSEEVKRQLER	0.677
DEDFMNKFEELLRNQQTGDPQFVADQADPNARWNVGDKQLHGRHQIRHQAKTESDQMEVQIDRMDVKVQNGHIDARINRQSNENGRPSRNELDQTVHYHNGKLKQLDESTSH	-0.44
DEDFWERVESMLRLWKHGNEDEWSKNADPNVRYVYGEKVVTGREQAKHMFRKVKDEIRFTFEFKRVRIQGDTIEAKFEFRADRNGKPRSANATVTIRFEGDKVHDNDVKSQS	0.42
DEDFWRRLVTLMQKNDFDQLARLVDPNAEVTVGDKTYEGRENIQKMWHKLKKQFDHYEIKTYRVKGDKLDMDYVFVVNGQQVRAKVEMRVHNGRLVELRFDARNPDELDTVRRILS	1.55
DEDHASRQAKKFIDAMRSGDEELAKNLVDKDVTAIYGDRTVNGREQVMKMVKEFRNQADEITVDDMKVKNGRVVIHLKMDINGEQEVVIVILDIRNGRAKEISFERR	1.27
